The values below come from IntAct's records for PubMed 27773430.

For experiment [1], the target named is pidd1_human PIDD1 (UniProt Q9HB75).
Experiment [2] deals with casp2_rat Casp2 (UniProt P55215).
Chain of casp2_rat Casp2 (P55215 whole entry): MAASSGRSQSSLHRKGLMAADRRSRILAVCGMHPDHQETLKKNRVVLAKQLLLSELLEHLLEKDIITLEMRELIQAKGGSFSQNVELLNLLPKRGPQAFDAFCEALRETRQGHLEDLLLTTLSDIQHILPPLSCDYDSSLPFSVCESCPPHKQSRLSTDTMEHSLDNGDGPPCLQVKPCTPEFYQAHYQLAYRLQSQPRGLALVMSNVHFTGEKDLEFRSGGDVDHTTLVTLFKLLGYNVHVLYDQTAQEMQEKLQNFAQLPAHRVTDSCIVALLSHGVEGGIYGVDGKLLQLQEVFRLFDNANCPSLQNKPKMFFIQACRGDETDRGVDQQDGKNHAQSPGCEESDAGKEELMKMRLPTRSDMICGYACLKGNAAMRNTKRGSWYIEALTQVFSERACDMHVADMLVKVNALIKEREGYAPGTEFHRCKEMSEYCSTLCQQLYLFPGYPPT

Chain of pidd1_human PIDD1 (Q9HB75 whole entry): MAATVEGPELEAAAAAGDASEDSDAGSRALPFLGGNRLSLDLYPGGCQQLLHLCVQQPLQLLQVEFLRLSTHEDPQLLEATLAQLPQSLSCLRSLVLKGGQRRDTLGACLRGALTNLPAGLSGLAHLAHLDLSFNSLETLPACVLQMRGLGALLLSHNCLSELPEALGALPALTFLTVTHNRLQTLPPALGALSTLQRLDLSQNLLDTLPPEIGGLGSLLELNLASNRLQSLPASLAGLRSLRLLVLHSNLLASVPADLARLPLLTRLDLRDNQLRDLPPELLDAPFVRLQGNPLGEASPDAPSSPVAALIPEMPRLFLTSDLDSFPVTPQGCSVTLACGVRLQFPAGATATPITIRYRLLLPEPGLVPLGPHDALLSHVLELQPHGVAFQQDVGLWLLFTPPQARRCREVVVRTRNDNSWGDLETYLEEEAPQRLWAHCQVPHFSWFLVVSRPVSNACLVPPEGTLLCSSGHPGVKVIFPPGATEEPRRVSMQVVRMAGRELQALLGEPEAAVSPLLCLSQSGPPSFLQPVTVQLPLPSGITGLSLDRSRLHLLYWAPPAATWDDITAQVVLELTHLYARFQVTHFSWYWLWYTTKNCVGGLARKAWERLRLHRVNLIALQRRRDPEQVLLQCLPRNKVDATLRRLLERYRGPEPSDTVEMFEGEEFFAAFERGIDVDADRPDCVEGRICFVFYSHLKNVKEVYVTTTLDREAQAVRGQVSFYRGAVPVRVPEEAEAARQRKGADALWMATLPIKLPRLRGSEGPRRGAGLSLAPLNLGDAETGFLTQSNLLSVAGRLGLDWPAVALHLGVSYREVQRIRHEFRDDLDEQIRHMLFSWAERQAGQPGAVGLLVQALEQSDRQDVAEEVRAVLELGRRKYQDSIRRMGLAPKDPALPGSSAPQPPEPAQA
Chain of Death domain-containing protein CRADD (Homo sapiens), P78560 F164C (P78560 whole entry F164C, the tested form may be a part): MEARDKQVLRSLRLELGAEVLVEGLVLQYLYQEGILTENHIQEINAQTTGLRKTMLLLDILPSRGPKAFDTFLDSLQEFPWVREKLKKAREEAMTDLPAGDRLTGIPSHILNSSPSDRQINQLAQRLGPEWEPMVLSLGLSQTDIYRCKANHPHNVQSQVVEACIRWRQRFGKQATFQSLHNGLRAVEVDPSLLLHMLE
Chain of Death domain-containing protein CRADD (Homo sapiens), P78560 G128R (P78560 whole entry G128R, the tested form may be a part): as the sequence (P78560 whole entry F164C, the tested form may be a part) above, with G128R, C164F counted along it
Chain of Death domain-containing protein CRADD (Homo sapiens), P78560 R170C (P78560 whole entry R170C, the tested form may be a part): as the sequence (P78560 whole entry F164C, the tested form may be a part) above, with C164F, R170C counted along it
Chain of Death domain-containing protein CRADD (Homo sapiens), P78560 R170H (P78560 whole entry R170H, the tested form may be a part): as the sequence (P78560 whole entry F164C, the tested form may be a part) above, with C164F, R170H counted along it

On to “Death domain-containing protein CRADD (Homo sapiens), P78560 F164C”, for which the “effect of a mutation on the interaction” value in experiment [1] and in experiment [2] was “with no effect” in each case.
“Death domain-containing protein CRADD (Homo sapiens), P78560 G128R”: the “effect of a mutation on the interaction” value in experiment [1] is “disrupting interaction strength”; in experiment [2] it was “decreasing interaction strength”.
Taken in the same sequence, the figures for “Death domain-containing protein CRADD (Homo sapiens), P78560 R170C” were “decreasing interaction strength” and “decreasing interaction strength”.
Taken in the same sequence, the figures for “Death domain-containing protein CRADD (Homo sapiens), P78560 R170H” were “decreasing interaction strength” and “decreasing interaction strength”.
